According to the supplement of paper PMC10567573:
± gives the standard deviation.

Test: protein stability index of a GFP-peptide fusion (GPS, HEK-293T) (PSI 1-6); higher = more stable
Conditions: c terminus: a fixed tail appended
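Note: 24-mer peptide tiles fused after GFP, lentivirally expressed, FACS-sorted into six equal bins by GFP/DsRed ratio, decoded by Illumina sequencing, PSI is the read-weighted mean bin number.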

Sequence	protein stability index (treatment: DMSO)	protein stability index (treatment: MLN4924 1 uM, 8 h)
KWMERYLRDKTVMIIVAISPKYKQ [TRAF3IP2]	2.65 ± 0.97	2.44 ± 0.34
TPYPNLYPDQSPSEDWTMEERFRP [CLCN6]	3.85 ± 0.26	4.07 ± 0.15
LAATTSMAYAKLMLTVMTKYQANI [FANCE]	2.92 ± 0.32	3.26 ± 0.72
SLAIFSEELDGLCFKGELPLRAVH [PLEKHN1]	2.42 ± 0.13	2.46 ± 0.43
LLHLAVNSNTPVDDFHTNDVCSFP [FEM1B]	2.85 ± 0.25	2.74 ± 0.12
VPCYSKTQKLSKIETLRLAKNYIW [NEUROD6]	2.43 ± 0.34	2.81 ± 0.58
HRDIKPDNLLLDAKGHVKLSDFGL [STK38L]	3.27 ± 0.23	3.4 ± 0.15
QVLPDSESLPRSEIDEKVTDLVQF [MAGEA10]	5.03 ± 0.3	4.99 ± 0.35
PGDMKTKMELLILETQAQVCQALA [CPOX]	2.31 ± 0.26	2.37 ± 0.34
KRQAVNKAVANMQGEMDRKCKQVK [ZMYND11]	4.6 ± 0.68	4.71 ± 0.45
HHLFPTMPRHNYHKVAPLVQSLCA [FADS1]	2.4 ± 0.32	2.51 ± 0.17
ADSTSFDVQLGDIILTATDGLFDN [PPTC7]	3.58 ± 0.22	3.68 ± 0.26
SALEEAFRRFAVHGDARATGREMH [TPPP]	3.22 ± 0.38	3.12 ± 0.12
AAAAAHSTPVRREVTDKEQEFAAR [EPB41L3]	5.28 ± 0.47	5.18 ± 0.56
GLPLAASMQEDEQSGRDLQQYQSQ [SEC22B]	5.34 ± 0.24	5.43 ± 0.3
KSEGLSGRVLRKLPFLAHALYVQA [TRIP13]	2.3 ± 0.58	2.13 ± 0.42
TQHVNNWMKHNVADSQITTIGNLV [PTPRD]	2.9 ± 0.44	3.12 ± 0.42

Sequence	protein stability index (treatment: DMSO)	protein stability index (treatment: MLN4924 1 uM, 8 h)
WVKQQAEREAEKEQKRLERLQRKL [SDE2]	4.18 ± 0.36	4.1 ± 0.33
KEATVPCTEILTEKKDTITNDSLS [MIA2]	–	5.49 ± 0.15
ETFLSFLEYLYTDSCCPAGIFQAM [RHOBTB3]	2.96 ± 0.48	2.56 ± 0.35
RELGRLRQQVTNHGRGTEVLLEEP [ZNF263]	4.7 ± 0.39	4.58 ± 0.33
AGLENTVAETECRYALQLQQIQGL [KRT13]	3.12 ± 0.24	2.91 ± 0.19
KGGQDVKKKVHLSEKIHPFIRKSI [PRIM1]	3.85 ± 0.53	3.59 ± 0.48
SRRSGKTSAVLKAGRQSVSGRKNS [C6orf223]	4.64 ± 0.28	4.78 ± 0.25
QGWVREHCPESGEEAVILLEDLER [ZSCAN9]	4.36 ± 0.12	4.7 ± 0.28
KFCMNGAALCALGKDCFLELAPDF [ETS1]	2.18 ± 0.33	2.01 ± 0.16
PYLRGTIKMMQAVRQAFQDQDDRR [GFOD1]	3.32 ± 0.17	3.56 ± 0.34
YQIYDVSGESNSAVSTEDLKECLK [LARP4]	4.2 ± 0.18	4.2 ± 0.19
MSLFSLYMVQDQHECILPFVQVKG [M1AP]	2.43 ± 0.54	2.14 ± 0.56
ETALTLACCGGFLEVADFLIKAGA [ANKRD17]	2.54 ± 0.9	2.65 ± 0.76
LATQEPTDNQVRLRKRKEIREDRD [DLC1]	5.41 ± 0.24	5.39 ± 0.16
AIWDDTDSMYGECRTYIIHYYLMD [EFHC1]	2.83 ± 0.52	2.67 ± 0.64
FTSSPSPFSSSSPENVEDSGLDSP [FCHO1]	2.86 ± 0.94	3.81 ± 0.87
